B1: T-box brain protein 1 (Homo sapiens), Q16650 (parent)
chain: MQLEHCLSPSIMLSKKFLNVSSSYPHSGGSELVLHDHPIISTTDNLERSSPLKKITRGMTNQSDTDNFPDSKDSPGDVQRSKLSPVLDGVSELRHSFDGSAADRYLLSQSSQPQSAATAPSAMFPYPGQHGPAHPAFSIGSPSRYMAHHPVITNGAYNSLLSNSSPQGYPTAGYPYPQQYGHSYQGAPFYQFSSTQPGLVPGKAQVYLCNRPLWLKFHRHQTEMIITKQGRRMFPFLSFNISGLDPTAHYNIFVDVILADPNHWRFQGGKWVPCGKADTNVQGNRVYMHPDSPNTGAHWMRQEISFGKLKLTNNKGASNNNGQMVVLQSLHKYQPRLHVVEVNEDGTEDTSQPGRVQTFTFPETQFIAVTAYQNTDITQLKIDHNPFAKGFRDNYDTIYTGCDMDRLTPSPNDSPRSQIVPGARYAMAGSFLQDQFVSNYAKARFHPGAGAGPGPGTDRSVPHTNGLLSPQQAEDPGAPSPQRWFVTPANNRLDFAASAYDTATDFAGNAATLLSYAAAGVKALPLQAAGCTGRPLGYYADPSGWGARSPPQYCGTKSGSVLPCWPNSAAAAARMAGANPYLGEEAEGLAAERSPLPPGAAEDAKPKDLSDSSWIETPSSIKSIDSSDSGIYEQAKRRRISPADTPVSESSSPLKSEVLAQRDCEKNCAKDISGYYGFYSHS
B2: Forkhead box protein P2 (Homo sapiens), O15409-1 (parent)
chain: MMQESATETISNSSMNQNGMSTLSSQLDAGSRDGRSSGDTSSEVSTVELLHLQQQQALQAARQLLLQQQTSGLKSPKSSDKQRPLQVPVSVAMMTPQVITPQQMQQILQQQVLSPQQLQALLQQQQAVMLQQQQLQEFYKKQQEQLHLQLLQQQQQQQQQQQQQQQQQQQQQQQQQQQQQQQQQQQQQQQQHPGKQAKEQQQQQQQQQQLAAQQLVFQQQLLQMQQLQQQQHLLSLQRQGLISIPPGQAALPVQSLPQAGLSPAEIQQLWKEVTGVHSMEDNGIKHGGLDLTTNNSSSTTSSNTSKASPPITHHSIVNGQSSVLSARRDSSSHEETGASHTLYGHGVCKWPGCESICEDFGQFLKHLNNEHALDDRSTAQCRVQMQVVQQLEIQLSKERERLQAMMTHLHMRPSEPKPSPKPLNLVSSVTMSKNMLETSPQSLPQTPTTPTAPVTPITQGPSVITPASVPNVGAIRRRHSDKYNIPMSSEIAPNYEFYKNADVRPPFTYATLIRQAIMESSDRQLTLNEIYSWFTRTFAYFRRNAATWKNAVRHNLSLHKCFVRVENVKGAVWTVDEVEYQKRRSQKITGSPTLVKNIPTSLGYGAALNASLQAALAESSLPLLSNPGLINNASSGLLQAVHEDLNGSLDHIDSNGNSSPGCSPQPHIHSIHVKEEPVIAEDEDCPMSLVTTANHSPELEDDREIEEEPLSEDLE
partner: B1 chain

Variants of: B1
Details: with FOXP2, O15409-1

Row | Variant | effect of a mutation on the interaction
1 | N374H | disrupting interaction strength
2 | V356M | decreasing interaction strength
3 | P542R | decreasing interaction strength
4 | Q178E | decreasing interaction strength
5 | Q418R | disrupting interaction strength
6 | K228E | disrupting interaction strength

Variants of: B2
Details: with tbr1_human TBR1, Q16650

Row | Variant | effect of a mutation on the interaction
7 | R553H | decreasing interaction strength

Source: IntAct's records for PubMed 25232744
